Reference: PMC11214414
Where two headings read alike, the source gives them in different places.

What was measured:
Experiment in all cases: EMSA
[1] = biological target: T1, HsASCC1 WT (Homo sapiens, UniProt Q8N9N2-2)
[2] = biological target: HsASCC1 GDDG mutant (Homo sapiens, UniProt Q8N9N2-2 1-357, K76D;R77D)
[3] = biological target: T1, HsASCC1 WT; remark: listed apart in the source

Binder | binding result [1] | binding result [2] | binding result [3]
UUUUCGCGUUUU (ssRNA) [CGCG RNA] | binds | no binding | 
TTTTCGCGTTTT (ssDNA) [CGCG DNA] |  |  | no binding
